Laboratory results reported in the DeepSol protein solubility set.

Experiment: soluble on expression in E. coli; label from the status in PepcDB or PDB records

Sequence	soluble on expression in E. coli
MKEALEAALREILGPGEVVALRRLPGGASKEAWAVDYRTGEALHPLFLRRAGGGVIYSKTLALAEEFRLLQVAWAHGVKVPEPLHYFPDLEGREAFLMRRLEGETIGARVVRRPELARARETLPQAMAEELAKIHALSPDEVPFLQPPSLPSWRPALKKACRDLNALGKPHPALKWGMRWLLTHPPRELPPVVVHGDFRVGNLLVNGEGLVAVLDWEFAHLGDPREDLAWPLVRAWRFGEDGKRLGGVGEVGPFLERYNALTGRDIAEEELFWWEVLGNVRWGLGALKQARRHLRGEERSVELAVLGRLASEMEYEVLHLLERYG	soluble
MSLTMNSEDKFKILQIADLHFSTGYGKCLDPQPPSSAKGCKADSRTLEFINKVLDLEKPDMVVLTGDQIFGDASPDLESSAFKALNPFVERKIPFAITVGNHDDEGSLKREEIMGLYADMPYSVAAMGPASIDGFGNYVVTVQGKSSKATALSLYFVDSHAYSKTPKVTPGYDWIKENQLIYLKQEAESIQNSVEKYRKSNKIPLAMAFFHIPLPEFRNLNQPFIGENREGVTAPRYNSGARQVLSEIGVSVASVGHDHCNDYCLQDTQQSLSPGDNKMWLCFGGGAGLGGYGGYNGYIRRMRVYELDTSKGEIKTWKRTEDNPGNIIDEQVLVSNGDVVNEGHHHHHH	soluble
MAHHHHHHMKWKWYNTKNICTLTNVFLSKHPYKPKTREIIHPHMTPPEYLAPSDCFQAKTGELQQYIPNNYYRVKWIESLRSGEYLGEDYPWNLLPNWKYWRKRKYNVKYEEIPWFISKVKGVSYYKRLNVWMVQWVENGVHRIRRFRCAFGLLQAKLAAEQFRKKLEEAGRVDNRKTERQIRMDYIQKKDERLLRKKKYSKISKGQF	not soluble
MGSDKIHHHHHHMQLNPSLIPHSSEQHVDWEKALHGGNDALLTQLAADDDPAAALLELESYINGIYRGSPSPLSKPLPDIRLEVRRALPYVDEIRDRLGWQVRDFDLGLLRLIRGSSTLSPVLGAGVSMDAGAPSWPELVRLMLEETLDKGLEFYESVPAADNPAQPPIEFLPDGTVRTGGTGTWRFEQRVSEVKRYTAEQEQTARNVLAEVKAKGSSTDVETLMHGAQVCYDLCGQHLFRLLTKIIYTRAKEPSEVHRVIAELAQAQEVPVRGPGLFPGWDSIITYNIDALMSEALAEQKIPHAAWAMKGDKLRGNPDELAQKSSWHEPIFHLHGFSPRRLFMITNVRFVFSTSQYLTTYKGPRSRILEAVYDEFLANPVRIALYIGCSFADEAMNGLLREAFAEYPGRYHYALLKWPRDRKGKEPDRSEIAAESAKYLEFGVRPIWFDDFAELPGLIRQLQ	not soluble
NAELAKSGIEVKNDVCEHFAYSRQELFHLIRIEEIKTFDELLEKYGKGYGCEVCKPLAGSILASCWGEHILKPQLVKLHDTNDNFLGNIQKDGTYSVIPRMAGGEVTPQALGALANVAAEYNLYTKVTGAQRIGLFGAQKDDLPEIWRKLIDAGFETGQAYAKALRMAKTCVGSTWCRYGVQDSVGLGSYIENRYKGIRTPHKMKFGVSGCTRECAEAQGKDLGIIATDAGWNMYVCGNGGMKPRHADLLASDLDKETLIKYIDRFMMFYIRTAAPLQRTSVWMENMEGGVDYLRAVIVEDKLGINAQLEADVAKLVDEYECEWTATINDASQLTRFAHFINSDKRDDNVVFVQEREQHRPATFTEKHPEAKGDILHVAITEA	not soluble
MGGSHHHHHHGMASALANEEDDPVVQEIDVYLAKSLAEKLYLFQYPVRPASMTYDDIPHLSAKIKPKQQKVELEMAIDTLNPNYCRSKGEQIALNVDGACADETSTYSSKLMDKQTFCSSQTTSNTSRYAAALYRQGELHLTPLHGILQLRPSFSYLDKADAKHREREAANEAGDSSQDEAEDDVKQITVRFSRPESEQARQRRVQSYEFLQKKHAEEPWVHLHYYGLRDSRSEHERQYLLCPGSSGVENTELVKSPSEYLMMLMPPSQEEEKDKPVAPSNVLSMAQLRTLPLADQIKILMKNVKVMPFANLMSLLGPSIDSVAVLRGIQKVAMLVQGNWVVKSDILYPKDSSSPHSGVPAEVLCRGRDFVMWKFTQSRWVVRKEVATVTKLCAEDVKDFLEHMAVVRINKGWEFILPYDGEFIKKHPDVVQRQHMLWTGIQAKLEKVYNLVKETMPKKPDAQSGPAGLVCGDQRIQVAKTKAQQNHALLERELQRRKEQLRVPAVPPGVRIKEEPVSEEGEEDEEQEAEEEPMDTSPSGLHSKLANGLPLGRAAGTDSFNGHPPQGCASTPVARELKAFVEATFQRQFVLTLSELKRLFNLHLASLPPGHTLFSGISDRMLQDTVLAAGCKQILVPFPPQTAASPDEQKVFALWESGDMSDQDCCVSYGGMWYLKGTVQS	not soluble
